Source: PMC9482650, “Quantitative fragmentomics allow affinity mapping of interactomes” (Nature Communications, 2022)

Experiments:
Test in all cases: holdup assay
Parameters in all cases: key: below the threshold = too weak to quantify, mostly under pKd 3.1 to 4
[1] = target: AHNAK1, Q09666
[2] = target: T1, APBA1_2, Q02410
T1 sequence (Q02410 742-832, limits assumed, looked up): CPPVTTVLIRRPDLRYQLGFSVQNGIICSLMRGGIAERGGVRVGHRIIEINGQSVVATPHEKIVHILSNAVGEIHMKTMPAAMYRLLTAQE

[3] = target: T2, APBA2_1, Q99767
T2 sequence (Q99767 563-664, limits assumed, looked up): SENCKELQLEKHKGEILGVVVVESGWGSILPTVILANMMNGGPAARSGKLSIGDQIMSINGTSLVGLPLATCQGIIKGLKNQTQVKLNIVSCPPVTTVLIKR

[4] = target: T3, APBA3_1, O96018
T3 sequence (O96018 389-490, limits assumed, looked up): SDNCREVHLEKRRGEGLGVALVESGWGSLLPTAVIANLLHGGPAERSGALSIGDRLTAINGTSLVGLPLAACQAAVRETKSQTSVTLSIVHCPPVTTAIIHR

[5] = target: T4, CARD11, Q9BXL7
T4 sequence (Q9BXL7 662-765, limits assumed, looked up): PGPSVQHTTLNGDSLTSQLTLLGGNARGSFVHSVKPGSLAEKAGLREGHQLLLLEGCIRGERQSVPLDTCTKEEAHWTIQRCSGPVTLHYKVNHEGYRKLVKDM

[6] = target: CASK, O14936
[7] = target: GORASP1, Q9BQQ3
[8] = target: GRASP, Q7Z6J2
[9] = target: T5, GRIP1_2, Q9Y3R0
T5 sequence (Q9Y3R0 145-248, limits assumed, looked up): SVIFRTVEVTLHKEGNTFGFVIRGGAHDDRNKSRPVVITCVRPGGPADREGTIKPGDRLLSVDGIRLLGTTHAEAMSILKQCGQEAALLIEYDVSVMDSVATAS

[10] = target: T6, GRIP1_4, Q9Y3R0
T6 sequence (Q9Y3R0 467-571, limits assumed, looked up): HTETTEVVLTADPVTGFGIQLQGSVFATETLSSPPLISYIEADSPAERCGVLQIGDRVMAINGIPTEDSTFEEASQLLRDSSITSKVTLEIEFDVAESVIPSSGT

[11] = target: HTRA2, O43464
[12] = target: Inadl_3, Q8NI35
[13] = target: Inadl_5, Q8NI35
[14] = target: LNX1_2, Q8TBB1
[15] = target: T7, LNX2_2, Q8N448
T7 sequence (Q8N448 334-432, limits assumed, looked up): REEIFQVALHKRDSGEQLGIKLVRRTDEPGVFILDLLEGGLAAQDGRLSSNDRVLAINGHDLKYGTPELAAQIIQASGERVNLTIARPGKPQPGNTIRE

[16] = target: MAGI2_5, Q86UL8
[17] = target: MAST1, Q9Y2H9
[18] = target: T8, MPDZ_12, O75970
T8 sequence (O75970 1857-1958, limits assumed, looked up): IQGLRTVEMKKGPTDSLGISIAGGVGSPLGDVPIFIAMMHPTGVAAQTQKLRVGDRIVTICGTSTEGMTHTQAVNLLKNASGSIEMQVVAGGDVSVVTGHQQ

[19] = target: T9, MPP7, Q5T2T1
T9 sequence (Q5T2T1 134-230, limits assumed, looked up): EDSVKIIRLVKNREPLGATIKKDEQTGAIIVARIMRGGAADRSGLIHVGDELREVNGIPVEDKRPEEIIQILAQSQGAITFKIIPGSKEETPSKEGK

[20] = target: T10, NHERF3_3, Q5T2W1
T10 sequence (Q5T2W1 238-333, limits assumed, looked up): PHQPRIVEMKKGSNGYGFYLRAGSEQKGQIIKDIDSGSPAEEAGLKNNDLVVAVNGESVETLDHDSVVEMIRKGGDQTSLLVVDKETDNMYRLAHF

[21] = target: T11, PDZD7_3, Q9H5P4
T11 sequence (Q9H5P4 857-944, limits assumed, looked up): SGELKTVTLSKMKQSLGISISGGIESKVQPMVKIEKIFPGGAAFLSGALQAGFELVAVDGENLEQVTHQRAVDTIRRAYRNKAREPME

[22] = target: T12, PTPN13_1, Q12923
T12 sequence (Q12923 1088-1188, limits assumed, looked up): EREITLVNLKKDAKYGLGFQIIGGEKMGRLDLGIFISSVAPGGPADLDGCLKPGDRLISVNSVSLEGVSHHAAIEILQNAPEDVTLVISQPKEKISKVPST

[23] = target: T13, RADIL, Q96JH8
T13 sequence (Q96JH8 971-1071, limits assumed, looked up): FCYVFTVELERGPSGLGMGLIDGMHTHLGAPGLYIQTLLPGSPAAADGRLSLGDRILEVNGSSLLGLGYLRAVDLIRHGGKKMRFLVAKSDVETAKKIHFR

[24] = target: TJP1_2, Q07157
[25] = plain residues with an end cap or a label only (N-terminal biotin on a linker: ado-ado)
[26] = plain residues with an end cap or a label only (N-terminal biotin on a linker: ado-ado, ttds)
[27] = plain residues with an end cap or a label only (N-terminal biotin on a linker: ttds)
[28] = plain residues with an end cap or a label only (N-terminal biotin on a linker: ahx)

Chain of MAGI2_5, Q86UL8 (Q86UL8 915-1017): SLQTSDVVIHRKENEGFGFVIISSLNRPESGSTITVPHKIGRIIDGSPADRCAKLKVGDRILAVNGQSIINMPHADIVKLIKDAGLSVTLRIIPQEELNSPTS
Chain of GORASP1, Q9BQQ3 (Q9BQQ3 1-208): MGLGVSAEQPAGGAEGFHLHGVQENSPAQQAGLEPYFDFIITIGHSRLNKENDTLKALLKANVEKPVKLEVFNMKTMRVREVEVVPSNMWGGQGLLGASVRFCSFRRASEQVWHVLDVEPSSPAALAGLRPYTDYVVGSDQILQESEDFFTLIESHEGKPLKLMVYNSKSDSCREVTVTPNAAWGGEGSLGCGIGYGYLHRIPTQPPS
Chain of AHNAK1, Q09666 (Q09666 4-100): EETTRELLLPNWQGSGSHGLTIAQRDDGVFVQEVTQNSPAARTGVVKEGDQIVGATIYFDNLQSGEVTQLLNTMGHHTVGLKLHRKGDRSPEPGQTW
Chain of GRASP, Q7Z6J2 (Q7Z6J2 96-193): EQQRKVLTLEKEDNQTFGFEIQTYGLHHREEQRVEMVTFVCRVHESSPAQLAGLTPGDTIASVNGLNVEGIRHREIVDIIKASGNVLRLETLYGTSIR
Chain of CASK, O14936 (O14936 487-570): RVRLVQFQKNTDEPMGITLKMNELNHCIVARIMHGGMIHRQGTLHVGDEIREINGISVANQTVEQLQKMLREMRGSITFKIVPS
Chain of MAST1, Q9Y2H9 (Q9Y2H9 962-1065): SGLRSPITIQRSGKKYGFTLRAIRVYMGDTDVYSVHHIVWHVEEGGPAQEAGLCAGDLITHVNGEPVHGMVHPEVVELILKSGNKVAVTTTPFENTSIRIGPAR
Chain of Inadl_5, Q8NI35 (Q8NI35 673-780): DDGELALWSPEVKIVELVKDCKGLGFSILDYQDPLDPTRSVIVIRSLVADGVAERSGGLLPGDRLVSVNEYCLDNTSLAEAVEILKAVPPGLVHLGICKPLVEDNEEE
Chain of LNX1_2, Q8TBB1 (Q8TBB1 371-470): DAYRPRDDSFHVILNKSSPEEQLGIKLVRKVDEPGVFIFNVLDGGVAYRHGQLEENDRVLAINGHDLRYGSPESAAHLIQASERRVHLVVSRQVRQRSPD
Chain of HTRA2, O43464 (O43464 355-458): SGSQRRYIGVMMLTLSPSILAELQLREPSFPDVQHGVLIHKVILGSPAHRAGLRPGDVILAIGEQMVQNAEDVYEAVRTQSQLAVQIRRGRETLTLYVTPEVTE
Chain of TJP1_2, Q07157 (Q07157 181-274): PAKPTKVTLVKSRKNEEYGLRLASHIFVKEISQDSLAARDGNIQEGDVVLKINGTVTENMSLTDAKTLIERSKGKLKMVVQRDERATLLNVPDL
Chain of Inadl_3, Q8NI35 (Q8NI35 359-469): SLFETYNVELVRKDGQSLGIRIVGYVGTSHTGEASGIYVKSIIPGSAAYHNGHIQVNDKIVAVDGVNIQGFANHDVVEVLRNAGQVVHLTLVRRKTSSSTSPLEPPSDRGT

In the case of ELKAEDEVQI [DCHS2, Q6V1P9], the pKd [1, 25] is reported as “below the threshold”, the pKd [2, 25] is reported as “below the threshold” and the pKd [3, 25] is reported as “below the threshold”. For the same binder, the pKd [4, 25] was “below the threshold”, the pKd [5, 25] was “below the threshold” and the pKd [6, 25] was “below the threshold”. For the same binder, the pKd [7, 25] was “below the threshold”, the pKd [8, 25] was “below the threshold” and the pKd [9, 25] was “below the threshold”. For the same binder, the pKd [10, 25] was “below the threshold”, the pKd [11, 25] was “below the threshold” and the pKd [12, 25] was “below the threshold”. For the same binder, the pKd [13, 25] was “below the threshold”, the pKd [14, 25] was “below the threshold” and the pKd [15, 25] was 3.71. For the same binder, the pKd [16, 25] was “below the threshold”, the pKd [17, 25] was “below the threshold” and the pKd [18, 25] was “below the threshold”. The pKd [19, 25] was 4, the pKd [20, 25] was “below the threshold” and the pKd [21, 25] was “below the threshold”. For the same binder, the pKd [22, 25] was “below the threshold”, the pKd [23, 25] was “below the threshold” and the pKd [24, 25] was 3.87.

SNAKAVETDV [KCNA4, P22459] was tested, and the pKd [1, 26] was “below the threshold”, the pKd [2, 26] was 3.5 and the pKd [3, 26] was “below the threshold”. For the same binder, the pKd [4, 26] was “below the threshold”, the pKd [5, 26] was 3.55 and the pKd [6, 26] was “below the threshold”. The pKd [7, 26] was “below the threshold”, the pKd [8, 26] was “below the threshold” and the pKd [9, 26] was “below the threshold”. The pKd [10, 26] was “below the threshold”, the pKd [11, 26] was “below the threshold” and the pKd [12, 26] was 3.51. The pKd [13, 26] was “below the threshold”, the pKd [14, 26] was “below the threshold” and the pKd [15, 26] was 3.51. The pKd [16, 26] was “below the threshold”, the pKd [17, 26] was 4.32 and the pKd [18, 26] was “below the threshold”. For the same binder, the pKd [19, 26] was “below the threshold”, the pKd [20, 26] was “below the threshold” and the pKd [21, 26] was “below the threshold”. For the same binder, the pKd [22, 26] was “below the threshold”, the pKd [23, 26] was “below the threshold” and the pKd [24, 26] was “below the threshold”.

SSIDLWETAL [SLC15A5, A6NIM6] was tested, and the pKd [1, 27] was “below the threshold”, the pKd [2, 27] was 4.29 and the pKd [3, 27] was “below the threshold”. The pKd [4, 27] was “below the threshold”, the pKd [5, 27] was “below the threshold” and the pKd [6, 27] was “below the threshold”. The pKd [7, 27] was 4.02, the pKd [8, 27] was 5.28 and the pKd [9, 27] was “below the threshold”. For the same binder, the pKd [10, 27] was “below the threshold”, the pKd [11, 27] was “below the threshold” and the pKd [12, 27] was 4.66. The pKd [13, 27] was “below the threshold”, the pKd [14, 27] was “below the threshold” and the pKd [15, 27] was “below the threshold”. The pKd [16, 27] was 4.97, the pKd [17, 27] was 5.45 and the pKd [18, 27] was “below the threshold”. The pKd [19, 27] was 3.81, the pKd [20, 27] was “below the threshold” and the pKd [21, 27] was 5.56. The pKd [22, 27] was “below the threshold”, the pKd [23, 27] was 3.78 and the pKd [24, 27] was “below the threshold”.

In the case of PPRQRSETQV [HPV82-E6, Q9IR59], the pKd [1, 27] is reported as “below the threshold”, the pKd [2, 27] is reported as “below the threshold” and the pKd [3, 27] is reported as “below the threshold”. The pKd [4, 27] was “below the threshold”, the pKd [5, 27] was “below the threshold” and the pKd [6, 27] was “below the threshold”. The pKd [7, 27] was “below the threshold”, the pKd [8, 27] was “below the threshold” and the pKd [9, 27] was “below the threshold”. The pKd [10, 27] was “below the threshold”, the pKd [11, 27] was “below the threshold” and the pKd [12, 27] was “below the threshold”. For the same binder, the pKd [13, 27] was 3.31, the pKd [14, 27] was “below the threshold” and the pKd [15, 27] was 3.73. For the same binder, the pKd [16, 27] was 4, the pKd [17, 27] was 4.41 and the pKd [18, 27] was “below the threshold”. For the same binder, the pKd [19, 27] was “below the threshold”, the pKd [20, 27] was “below the threshold” and the pKd [21, 27] was 3.84. For the same binder, the pKd [22, 27] was “below the threshold”, the pKd [23, 27] was 3.34 and the pKd [24, 27] was “below the threshold”.

SKKNELFSNL [NHERF1, O14745] was tested, and the pKd [1, 28] was “below the threshold”, the pKd [2, 28] was 3.48 and the pKd [3, 28] was “below the threshold”. For the same binder, the pKd [4, 28] was “below the threshold”, the pKd [5, 28] was “below the threshold” and the pKd [6, 28] was “below the threshold”. The pKd [7, 28] was “below the threshold”, the pKd [8, 28] was “below the threshold” and the pKd [9, 28] was “below the threshold”. The pKd [10, 28] was “below the threshold”, the pKd [11, 28] was “below the threshold” and the pKd [12, 28] was “below the threshold”. For the same binder, the pKd [13, 28] was “below the threshold”, the pKd [14, 28] was “below the threshold” and the pKd [15, 28] was “below the threshold”. For the same binder, the pKd [16, 28] was “below the threshold”, the pKd [17, 28] was 3.6 and the pKd [18, 28] was “below the threshold”. The pKd [19, 28] was “below the threshold”, the pKd [20, 28] was “below the threshold” and the pKd [21, 28] was “below the threshold”. The pKd [22, 28] was “below the threshold”, the pKd [23, 28] was “below the threshold” and the pKd [24, 28] was “below the threshold”.
